{
  "source": "paper PMC4349392",
  "biological_target": "YFP-tagged CaV1.3 IQ domain, prototypic (IQDY) (rat)",
  "assay": "FRET or BRET",
  "data": [
    {"substance": "CFP-tagged calmodulin, wild type (CFP-CaMWT) (from UniProt P0DP29 1-149) (natural protein)", "values": [
      {"measurement": "K (a,EFF) (reciprocal D (free) units)", "result": 0.000588},
      {"measurement": "Ka", "result": "1.8e+07", "unit": "M⁻¹"},
      {"measurement": "Kd", "result": 55, "unit": "nM"}
    ]}
  ]
}
